Test results from patent publication US9428773B2, “Methods of producing acetoin and 2,3-butanediol using photosynthetic microorganisms” (The Regents of the University of California, priority 2012, dated 2016).

Columns and labels:
[1] = ADH activity in crude cell lysate of modified S. elongatus strains, oxidation of NAD(P)H with acetoin; type: biochemical; settings: for ADH enzyme activity in crude cell lysate: expressed in S. elongatus, lysate isolated during production
Experimental: Enzyme Assays. S. elongatus cells were collected 72 h after induction by centrifugation (4000 g, 5 min, washed in 50 mM potassium phosphate buffer (pH 7.5) and resuspended in the same buffer. Crude extract were prepared with 0.1-mm glass beads and a Mini bead beater (Mini Bead Beater 8 (BioSpec Products, Inc., Bartlesville, Okla.)). The total protein determination was performed by Advanced Protein Assay Reagent from Cytoskeleton, Inc. (Denver, Colo.).
(§1) Alcohol dehydrogenase (ADH) activity was determined by measuring the oxidation of NAD(P)H. The reaction mixture contained 50 mM 3-(N-morpholino) propanesulfonic acid (MOPS) pH 7.0, 25 mM acetoin and 0.2 mM NAD(P)H. The consumption of NAD(P)H was monitored at 340 nm. One specific unit of ADH activity corresponds to the oxidation of 1 nmol of NAD(P)H per minute per mg of protein.
23BD production was detected in three out of four S. elongatus strains (FIG. 4C). […] The strain expressing adh (T. b.) produced 301 mg/L (R,R)-23BD with trace amounts of meso-23BD but also allowed for accumulation of acetoin (FIG. 4C). The strain expressing adh (C. b.) produced 270 mg/L (R,R)-23BD (major) and undetectable levels of acetoin, indicating high flux through the intermediate. The strain expressing adh (C. p.) produced 65 mg L^−1 23BD, with meso-23BD as the primary product and accumulated toxic levels of acetoin. The remaining S-installing adh (L. p.) was not active in S. elongatus, resulting only in accumulation of acetoin. […] Activity for adh (C. p.) was roughly 5-fold higher again than adh (C. b.), however low production and acetoin accumulation was observed, similar to the result in E. coli. […] The two sADH with highest production and lowest acetoin accumulation were further tested with the stronger ALDC gene alsD (A. h.). Both strains increased production, yielding 568 mg L^−1 from adh (T. b.) and 952 mg L^−1 from adh (C. b.), the latter of which is 3 fold higher than production with alsD (E. a.) over 72 hours (FIG. 4C).

[2] = sADH (ADH) activity in crude cell lysate of E. coli production strains, oxidation of NAD(P)H with acetoin; type: biochemical; settings: expressed in E. coli, excess substrate, NADPH
Experimental: as §1
The resulting E. coli strains were cultured in modified M9 medium, containing 50 g/L glucose, at 30° C. for 40 h (FIG. 4B). […] The fourth strain, expressing adh (C. b.), maintained a relatively low acetoin concentration (less than 6% of total production) and produced 13.8 g/L total 23BD as a mixture of (R,R)-23BD and meso-23BD stereoisomers forming 74% and 21% of total production respectively (FIG. 4B). The strains expressing adh (T. b.) and adh (C. p.) produced 2.4 g/L and 14.2 g/L 23BD respectively with both isomers formed in roughly equal amounts in each. […] Enzyme activities measured from crude cell lysate isolated during production were high for both sADH (C. p.) and sADH (C. b.), at 265 and 440 nmol min^−1 mg^−1 respectively, when excess substrate was used (FIG. 4B). […] The major 23BD product of each of the adh expressing strains matched the stereochemistry predicted by previous characterization (41-43).

Molecule | ADH enzyme activity in crude cell lysate [1] | sADH enzyme activity in crude cell lysate [2] | fold higher activity than adh (C. b.) ([1]; S. elongatus crude cell lysate) | fold higher activity than adh (T. b.) ([1]; S. elongatus crude cell lysate)
adh (L. p.): Leuconostoc pseudomesenteroides CHCC 2114 secondary alcohol dehydrogenase, NADPH, S-installing (SEQ ID NO: 19) (protein, Leuconostoc pseudomesenteroides) MTKKVAMVTGGAQGIGEAIVRRLSADGFAVAVADLNEAKSKEVATDIEKNGGTAIAVKLDVSDREGFFAAVKEVAEKLGGFDVLVNNAGLGPTTPIDTITPELFDKVYHINVAGDIWGIQAAVEQFKKNGNGGKIINATSQAGVVGNPNLSLYSSTKFAVRGLTQVAARDLAEQNITVNAYAPGIVKTPMMFDIAHEVGKNAGKDDEWGMQTFAKDIALKRLSEPEDVAAAVAFLAGPDSNYITGQTIEVDGGMQFH | could not be detected | – | – | –
sADH (T. b.): Thermoanaerobacter brockii HTD4 secondary alcohol dehydrogenase, NADPH, R-installing (SEQ ID NO: 23) (protein, listed as Thermoanaerobacter brockii) MKGFAMLSIGKVGWIEKEKPAPGPFDAIVRPLAVAPCTSDIHTVFEGAIGERHNMILGHEAVGEVVEVGSEVKDFKPGDRVVVPAITPDWRTSEVQRGYHQHSGGMLAGWKFSNVKDGVFGEFFHVNDADMNLAHLPKEIPLEAAVMIPDMMTTGFHGAELADIELGATVAVLGIGPVGLMAVAGAKLRGAGRIIAVGSRPVCVDAAKYYGATDIVNYKDGPIESQIMNLTEGKGVDAAIIAGGNADIMATAVKIVKPGGTIANVNYFGEGEVLPVPRLEWGCGMAHKTIKGGLCPGGRLRMERLIDLVFYKRVDPSKLVTHVFRGFDNIEKAFMLMKDKPKDLIKPVVILA | 6.3 nmol min^−1 mg ^−1 | Relatively low activity | – | –
sADH (C. p.): Candida parapsilosis M203011 secondary alcohol dehydrogenase, NADPH, S-installing (SEQ ID NO: 17) (protein, listed as Candida parapsilosis) MGEIESYCNKELGPLPTKAPTLSKNVLDLFSLKGKVASVTGSSGGIGWAVAEAYAQAGADVAIWYNSHPADEKAEHLQKTYGVHSKAYKCNISDPKSVEETISQQEKDFGTIDVFVANAGVTWTQGPEIDVDNYDSWNKIISVDLNGVYYCSHNIGKIFKKNGKGSLIITSSISGKIVNIPQLQAPYNTAKAACTHLAKSLAIEWAPFARVNTISPGYIDTDITDFASKDMKAKWWQLTPLGREGLTQELVGGYLYLASNASTFTTGSDVVIDGGYTCP | – | 265 nmol/min/mg | roughly 5 fold | –
sADH (C. b.): Clostridium beijerinckii NRRL B593 secondary alcohol dehydrogenase, NADPH, R-installing (SEQ ID NO: 21) (protein, listed as Clostridium beijerinckii) MKGFAMLGINKLGWIEKERPVAGSYDAIVRPLAVSPCTSDIHTVFEGALGDRKNMILGHEAVGEVVEVGSEVKDFKPGDRVIVPCTTPDWRSLEVQAGFQQHSNGMLAGWKFSNFKDGVFGEYFHVNDADMNLAILPKDMPLENAVMITDMMTTGFHGAELADIQMGSSVVVIGIGAVGLMGIAGAKLRGAGRIIGVGSRPICVEAAKFYGATDILNYKNGHIVDQVMKLTNGKGVDRVIMAGGGSETLSQAVSMVKPGGIISNINYHGSGDALLIPRVEWGCGMAHKTIKGGLCPGGRLRAEMLRDMVVYNRVDLSKLVTHVYHGFDHIEEALLLMKDKPKDLIKAVVIL | 56.3 nmol min^−1 mg ^−1 | 440 nmol/min/mg | – | roughly 10 fold
